We go through two substances from patent US10646600B2, “HER2 polypeptides useful for imaging and monitoring tumors and cancers” (GE HEALTHCARE LIMITED, priority 2013, dated 2020).

Read-outs that look alike come from different tables or passages of the source.

Series [1] relates to human p95HER2. Description: Surface Plasmon Resonance, p95HER2 ECD-Fc-6×His. The class given is binding. As for the experimental part: To characterize the affinity of [^19F]GE-226[SEQ ID NO 1] to HER2 protein, Surface Plasmon Resonance studies were conducted. Human, rhesus and rat HER2-ECD-Fc (SINO Biological, Beijing, China, Cat. Nr: 10004-H02H, 90020-K02H, and 80079-R02H), as well as human HER2-ECD-Fc-6×His (R&D Systems, Minneapolis, Minn., Cat. Nr: 1129-ER) and p95HER2 ECD-Fc-6×His (Syngene, Cambridge, United Kingdom) were diluted with 50 mM sodium acetate pH 4.5 (Biacore (GE Healthcare, Buckinghamshire, UK) coupling buffer) to a final concentration of 10 μg/mL. Antigen coupling to Biacore sensor chip CMS (Cat. Nr: BR-1005-30) was done according to amine coupling protocol from the instrument manual […]. HBS-EP buffer (10 mM HEPES pH 7.4, 150 mM NaCl, 3 mM EDTA and 0.005% surfactant P20; GE Healthcare, Little Chalfont, United Kingdom, Cat. Nr: BR-1006-69) was used as running buffer and as solvent for the substances. The affinity studies were performed using a Biacore T100 (GE Healthcare). [^19F]GE-226 was diluted in HBS-EP buffer to 50 nM, 25 nM, 12.5 nM, 6.25 nM, 3.125 nM, 1.56 nM, 0.78 nM, 0.39 nM, 0.195 nM, 0.097 nM, 0.049 nM and 0 nM. The flow cells of the first chip comprised of blank, human HER2-ECD-Fc-6×His, p95HER2-ECD-Fc-6×His batch I and p95HER2-ECD-Fc-6×His batch II. The flow cells on the second chip contained blank, human HER2-ECD-Fc, rhesus HER2-ECD-Fc and rat HER2 ECD-Fc. […]

The test system of series [2] is SKOV-3 xenografts. The series is described as follows: PET-CT imaging and kinetic modeling, SKOV-3 xenografts. The format is in vivo, mice. On the procedure: […] […] To investigate response to HSP90 inhibition, SKOV-3 xenograft-bearing mice were treated with 50 mg/kg NVP-AUY922 or equivalent volume of vehicle (˜5 μL/g body weight; 10% DMSO and 5% Tween-20 in PBS) q.d. i.p. for three days. 24 h after the last treatment, animals were used for PET imaging.
(§1) Mice were anesthetized through isoflurane inhalation and scanned on a dedicated small animal PET-CT scanner (Siemens Multimodality Inveon, Erlangen, Germany). Low dose CT scans were first acquired (80 kVp, 0.5 mA, 220 degree rotation, 600 ms per degree exposure time, 80 μm reconstruction pixel size) for PET attenuation correction and to obtain an anatomical reference. PET images were acquired following a bolus i.v. injection of approximately 3.7 MBq [^18F]GE-226 in the tail vein. Dynamic emission scans were acquired in list mode format over 60 minutes. The acquired data were sorted into 0.5-mm sinogram bins and 19 time frames for image reconstruction by filtered back projection (4×15 seconds and 4×60 seconds followed by 11×300 seconds). The Siemens Inveon Research Workplace software was used for visualization of radiotracer uptake. 30 to 60-minute cumulative images of the dynamic data were employed to define 3-dimensional (3D) regions of interest (ROI). Arterial input function was estimated by drawing ROIs over the center of the heart cavity using 0.25 to 2 minutes of cumulative images. The count densities were averaged for all ROIs at each time point to obtain time versus radioactivity curves (TAC). Tumor TACs were normalized to injected dose measured by a VDC-304 dose calibrator (Veenstra Instruments, Joure, Netherlands) and normalized uptake was expressed as percentage injected dose per mL tissue (NUV; % ID/mL). Normalized uptake of radiotracer at 60 minutes (NUV60) was used for comparisons. For qualitative image visualization, cumulative images of the dynamic data (30 to 60 min) were also iteratively reconstructed (OSEM3D).
Kinetic analysis of PET data was performed applying a standard two-tissue irreversible compartmental model to fit each tumor TAC with the corresponding image-derived plasma TAC as input function (IF) to estimate K1 (mL/cm^3/min), k2, (1/min) and k3 (1/min) and the blood vascular component Vb (mL blood/mL tissue; unitless). The irreversible uptake rate Ki (mL/cm^3/min) was computed as K1×k3/(k2+k3). To estimate the kinetic parameters the measured tumor TAC (tTAC) was modeled as tTAC(t)=(1−Vb)h(t)⊗IF(t)+VbIF(t) with h(t) indicating the unknown tissue impulse function and ⊗ the convolution operator. The parameter vector p=[K1, k2, k3, Vb] was estimated with the standard Weighted Non-Linear Least Squares (WNLLS) by minimizing the Weighted Residual Sum of Squares (WRSS) function

For series [3], the target named is T1, rat HER2 (Rattus norvegicus, UniProt P06494).
T1 construct: Human, rhesus and rat HER2-ECD-Fc (SINO Biological, Beijing, China, Cat. Nr: 10004-H02H, 90020-K02H, and 80079-R02H); Fc (C); purchased SINO Biological 80079-R02H
The series is described as follows: Surface Plasmon Resonance, rat HER2-ECD-Fc. The format is binding. On the procedure:
To characterize the affinity of [^19F]GE-226[SEQ ID NO 1] to HER2 protein, Surface Plasmon Resonance studies were conducted. Human, rhesus and rat HER2-ECD-Fc (SINO Biological, Beijing, China, Cat. Nr: 10004-H02H, 90020-K02H, and 80079-R02H), as well as human HER2-ECD-Fc-6×His (R&D Systems, Minneapolis, Minn., Cat. Nr: 1129-ER) and p95HER2 ECD-Fc-6×His (Syngene, Cambridge, United Kingdom) were diluted with 50 mM sodium acetate pH 4.5 (Biacore (GE Healthcare, Buckinghamshire, UK) coupling buffer) to a final concentration of 10 μg/mL. Antigen coupling to Biacore sensor chip CMS (Cat. Nr: BR-1005-30) was done according to amine coupling protocol from the instrument manual (Syngene). HBS-EP buffer (10 mM HEPES pH 7.4, 150 mM NaCl, 3 mM EDTA and 0.005% surfactant P20; GE Healthcare, Little Chalfont, United Kingdom, Cat. Nr: BR-1006-69) was used as running buffer and as solvent for the substances. The affinity studies were performed using a Biacore T100 (GE Healthcare). [^19F]GE-226 was diluted in HBS-EP buffer to 50 nM, 25 nM, 12.5 nM, 6.25 nM, 3.125 nM, 1.56 nM, 0.78 nM, 0.39 nM, 0.195 nM, 0.097 nM, 0.049 nM and 0 nM. The flow cells of the first chip comprised of blank, human HER2-ECD-Fc-6×His, p95HER2-ECD-Fc-6×His batch I and p95HER2-ECD-Fc-6×His batch II. The flow cells on the second chip contained blank, human HER2-ECD-Fc, rhesus HER2-ECD-Fc and rat HER2 ECD-Fc. The immobilization of the proteins was validated with protein-A (Sigma-Aldrich, St. Louis, Mo., Cat. Nr: P6031) and anti-human IgG antibody (Perkin Elmer, Waltham, Mass., Cat. Nr: NEF803001EA). [^19F]GE-226[SEQ ID NO 1] was pumped in duplicate over cells in randomized order for 60 sec at 50 μL/min flow rate followed by 120 sec of HBS-EP to monitor dissociation. This was followed by regeneration of the chip with 50 mM sodium hydroxide for 30 sec at 30 μL/min flow rate followed by 60 sec run of HBS-EP to stabilize the surface. Kinetic calculations were performed using Langmuir 1:1 binding model and simultaneous calculation of association and dissociation phase.

For series [4], the system named is MCF7-HER2 xenografts. The series is described as follows: PET-CT imaging and kinetic modeling, MCF7-HER2 xenografts. The class given is in vivo, mice.
Text: as §1, with “Arterial input function was estimated by drawing ROIs over the center of the heart cavity using 0.25 to 2 minutes of cumulative images.” left out, “Normalized uptake of radiotracer at 60 minutes (NUV60) was used for comparisons. For qualitative image visualization, cumulative images of the dynamic data (30 to 60 min) were also iteratively reconstructed (OSEM3D).” left out

For series [5], the system named is MDA-MB-361 xenografts. Description: PET-CT imaging and kinetic modeling, MDA-MB-361 xenografts. The format is in vivo, mice.
Text: as §1, with “Arterial input function was estimated by drawing ROIs over the center of the heart cavity using 0.25 to 2 minutes of cumulative images.” left out, “Normalized uptake of radiotracer at 60 minutes (NUV60) was used for comparisons. For qualitative image visualization, cumulative images of the dynamic data (30 to 60 min) were also iteratively reconstructed (OSEM3D).” left out

Series [6] can be described thus: Metabolic stability, plasma radio-HPLC. The format is in vivo, mice. The settings on record: 3.7 MBq i.v., 10, 30 and 60 minutes post injection. As for the experimental part:
At 10, 30 and 60 minute post injection, mice were exsanguinated via cardiac puncture and blood removed for centrifugation. Plasma was obtained and kept on ice for analysis of radioactive metabolites by HPLC.

The test system of series [7] is SKOV-3. The series is described as follows: Biodistribution, SKOV-3 tumor. The class given is in vivo, mice. The text has this:
Mice were sacrificed at different time points by exsanguination.

For series [8], the system named is MCF7 and MCF7-p95HER2 xenografts. The series is described as follows: PET-CT imaging and kinetic modeling, HER2 negative xenografts. The class given is in vivo, mice. To be noted: HER2 negative tumors.
Text: as §1, with “Arterial input function was estimated by drawing ROIs over the center of the heart cavity using 0.25 to 2 minutes of cumulative images.” left out, “Normalized uptake of radiotracer at 60 minutes (NUV60) was used for comparisons. For qualitative image visualization, cumulative images of the dynamic data (30 to 60 min) were also iteratively reconstructed (OSEM3D).” left out

Where [9] appears, read: listed as 19F-Affibody analogue.
The mark [10] stands for this setting: two-tissue irreversible compartmental model.

T1 sequence (P06494 23-654 limits assumed): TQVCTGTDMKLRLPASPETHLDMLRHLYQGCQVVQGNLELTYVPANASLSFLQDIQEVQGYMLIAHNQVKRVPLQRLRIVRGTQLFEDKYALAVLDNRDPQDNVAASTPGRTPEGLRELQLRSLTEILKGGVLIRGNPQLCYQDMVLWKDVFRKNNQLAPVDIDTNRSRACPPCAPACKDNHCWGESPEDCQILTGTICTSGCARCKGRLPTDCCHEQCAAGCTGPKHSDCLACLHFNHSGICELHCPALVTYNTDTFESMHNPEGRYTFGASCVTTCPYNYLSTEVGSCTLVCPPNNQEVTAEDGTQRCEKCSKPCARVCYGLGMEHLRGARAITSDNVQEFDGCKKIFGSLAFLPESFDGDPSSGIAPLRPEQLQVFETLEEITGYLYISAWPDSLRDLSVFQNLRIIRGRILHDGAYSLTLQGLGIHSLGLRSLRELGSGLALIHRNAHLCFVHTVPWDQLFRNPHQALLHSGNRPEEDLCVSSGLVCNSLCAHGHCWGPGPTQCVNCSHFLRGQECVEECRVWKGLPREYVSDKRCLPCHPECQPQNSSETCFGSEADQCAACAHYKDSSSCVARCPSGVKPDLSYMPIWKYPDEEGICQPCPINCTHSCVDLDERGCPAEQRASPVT

As for “[^19F]GE-226: cold unlabeled non-radioactive 19F analogue of the tracer, used for SPR and blocking”, the “interaction with human p95HER2 (words)” value in series [1] and in series [1] (setting [9]) was “did not interact” in each case. Also, the “NUV60 of [18F]GE-226 in blocked tumors” value in series [2] (30 mg/kg [19F]GE-226 i.v. 20 minutes prior to PET scan) came to 7.1±1.6 % ID/mL. Besides, the “interaction with rat HER2 (words)” value is on record as “did not interact” in series [3], “did not interact” in series [3] (setting [9]) and “not” in series [3] (listed as GE-226).

“[^18F]GE-226: HER2-binding 18F-radiolabelled Affibody molecule ZHER2:2891”: the NUV60 stood at 10.9±1.5 % ID/mL in series [4] (PET, 60 minutes); 18.2±3.4 % ID/mL in series [5] (PET, 60 minutes); 18.7±2.4 % ID/mL in series [2] (PET, 60 minutes); 6.1±0.7 % ID/mL in series [8] (PET, 60 minutes). Besides, the “Ki (net irreversible uptake rate)” value is listed as 0.015±0.0035 mL/cm^3/min in series [4] (setting [10]), 0.025±0.0052 mL/cm^3/min in series [5] (setting [10]), 0.036±0.0065 mL/cm^3/min in series [2] (setting [10]) and 0.0069±0.0014 mL/cm^3/min in series [8] (setting [10]). In addition, the “metabolic stability” value in series [6] is on record as “metabolically stable”; in series [6] (listed as tracer) it was “stable in vivo”. The “tumor tracer uptake at 2 h” value in series [2] (SKOV-3 xenografts, 2 h versus 1 h) is recorded as “higher at 2 h”. The “Tissue uptake, SKOV-3” value in series [7] (60 min) is listed as 17.35 ± 0.83 % ID/g tissue. Further, in series [7] (SKOV-3 tumor, 1 h), the tumor/muscle ratio is roughly 60.
